Reference: the supplement of paper PMC9732359
± gives the uncertainty stated by the source.

experiment: protein stability index of a GFP-peptide fusion (yeast GPS) (PSI 1-4); higher = more stable; sorted into four equal gates, so the index is relative within each strain; conditions: pdr5∆
How it was run: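 Plasmids isolated from each sorting gate were PCR-amplified and Illumina-sequenced, and barcodes assigned the reads to strains. The gates, four of equal size, were set by GFP/Cherry fluorescence ratio on mid-log cultures in leucine-free medium. These cultures were yeast carrying a pooled library of tiled 17-residue yeast protein peptides fused downstream of GFP on a plasmid that also expresses Cherry. The protein stability index is the sum of every gate's read frequency times its gate number.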

Question: With EQPCVDIISGKIHSILP [YJR042W/NUP85] as the sequence, how does the protein stability index read?
Answer: The protein stability index was 3.07 ± 0.1.

Question: For EQQKGQQTAQTQLEQQR [SNF5], which protein stability index is on record?
Answer: Its protein stability index is 3.4 ± 0.088.

Question: For EQRKQKLSKILPRYQEL [SMC3], which protein stability index is on record?
Answer: The protein stability index was 3.1 ± 0.1.

same assay, conditions: san1∆

Question: With EFTSKIGFTIKEYENHS [SMC1] as the sequence, how does the protein stability index read?
Answer: Its protein stability index is 2.84 ± 0.12.

Question: Which protein stability index does the source give for EGDASPFTDITVEGISK [RPB2] here?
Answer: The protein stability index was 3.08 ± 0.092.

Question: Which protein stability index does the source give for EGDGAKAAISFGAKPEE [YJL041W/NSP1] here?
Answer: The protein stability index was 3.43 ± 0.082.

Question: For EGEPVNSPNYFVAKLAA [COR1], which protein stability index is on record?
Answer: Its protein stability index is 3.37 ± 0.13.

Question: Which protein stability index does the source give for EGKYIVDVAKDINVKDL [RPT6] here?
Answer: Its protein stability index is 2.67 ± 0.14.

Question: For EGNTVLEKGNNPSVKQG [SWP82], which protein stability index is on record?
Answer: The protein stability index was 3.26 ± 0.065.

Question: With EGNYRNLNNLKQENAYL [RPB8] as the sequence, how does the protein stability index read?
Answer: Its protein stability index is 3.27 ± 0.08.

Question: With EGQADIDMESDVEDDDK [POP7] as the sequence, how does the protein stability index read?
Answer: The protein stability index was 3.3 ± 0.07.

Question: Which protein stability index does the source give for EGRLLDNVQANDPAREK [SNF12] here?
Answer: Its protein stability index is 2.96 ± 0.05.

Question: With EGSKSHPFGHALVAGIE [RPL27A] as the sequence, how does the protein stability index read?
Answer: The protein stability index was 2.59 ± 0.071.

Question: With EHKSQVVLYNYYLGQYY [CSN12] as the sequence, how does the protein stability index read?
Answer: Its protein stability index is 2.71 ± 0.086.

Question: Which protein stability index does the source give for EIALKGLESLLNIGLGA [YCS4] here?
Answer: Its protein stability index is 3.03 ± 0.13.

Question: For EIDVENHDRINISNNLQ [RPN8], which protein stability index is on record?
Answer: Its protein stability index is 3.32 ± 0.043.

Question: With EIGILDHVDGSSEFVSQ [RRP46] as the sequence, how does the protein stability index read?
Answer: The protein stability index was 2.24 ± 0.065.

Question: Which protein stability index does the source give for EIGITQQRIVSAYEASM [RRP4] here?
Answer: Its protein stability index is 2.75 ± 0.12.

Question: Which protein stability index does the source give for EIIFLGAQIVSKQIFTH [ARP9] here?
Answer: The protein stability index was 1.14 ± 0.14.

Question: With EIKKLLATNSLVEEFML [DIS3] as the sequence, how does the protein stability index read?
Answer: The protein stability index was 2.54 ± 0.057.

Question: With EINLSKIFQTTPEKDLF [YCS4] as the sequence, how does the protein stability index read?
Answer: Its protein stability index is 1.5 ± 0.091.

Question: With EINPFLLGTMAGGAADC [PRE2] as the sequence, how does the protein stability index read?
Answer: The protein stability index was 2.75 ± 0.15.

Question: Which protein stability index does the source give for EINSVGNPGLPQYQYQR [ITC1] here?
Answer: The protein stability index was 2.92 ± 0.057.

Question: For EISAAHNKLNITSDALE [SMC3], which protein stability index is on record?
Answer: The protein stability index was 2.58 ± 0.23.

Question: With EITDAYCFAKNDLFFNN [YMR129W/POM152] as the sequence, how does the protein stability index read?
Answer: The protein stability index was 2.22 ± 0.071.

Question: With EITSVLSNLHESNKRYR [SNF12] as the sequence, how does the protein stability index read?
Answer: Its protein stability index is 2.94 ± 0.054.

Question: Which protein stability index does the source give for EIVDTYQEDIFVSESPS [ISW2] here?
Answer: Its protein stability index is 3.35 ± 0.092.

Question: Which protein stability index does the source give for EKACQVLKYMLLSKIML [RPN6] here?
Answer: Its protein stability index is 1.13 ± 0.1.

Question: For EKASGFEDSMQFKKLTH [PRP8], which protein stability index is on record?
Answer: Its protein stability index is 2.99 ± 0.087.

Question: For EKCKEINVETVYDIMAL [BRR2], which protein stability index is on record?
Answer: Its protein stability index is 2.57 ± 0.07.

Question: For EKGNAKMIDFATLSKLK [SIR3], which protein stability index is on record?
Answer: Its protein stability index is 3.33 ± 0.037.

Question: For EKINRMIIFLKNYDATD [CSI1], which protein stability index is on record?
Answer: The protein stability index was 2.38 ± 0.046.

Question: With EKITQISLLCKNFKGIE [PCI8] as the sequence, how does the protein stability index read?
Answer: Its protein stability index is 2.7 ± 0.037.

Question: With EKKPAAKKTSTSTDGKK [HTB1] as the sequence, how does the protein stability index read?
Answer: Its protein stability index is 2.85 ± 0.18.

Question: For EKLTSKSLDEQLLLLSD [LRP1], which protein stability index is on record?
Answer: The protein stability index was 2.94 ± 0.038.

Question: Which protein stability index does the source give for EKTYTKAPKIQRLVTPQ [RPS6A] here?
Answer: The protein stability index was 2.11 ± 0.064.

Question: With EKVFNAYPAAREQFLNA [FAS1] as the sequence, how does the protein stability index read?
Answer: The protein stability index was 3.1 ± 0.077.

Question: With ELAGDEELEAEQIDVFS [PRP8] as the sequence, how does the protein stability index read?
Answer: Its protein stability index is 3.08 ± 0.12.

Question: With ELDSKTRKILEILNECH [MED4] as the sequence, how does the protein stability index read?
Answer: The protein stability index was 3.27 ± 0.037.

Question: For ELEFIQSLANIQYVTYL [SOH1], which protein stability index is on record?
Answer: Its protein stability index is 2.71 ± 0.052.

Question: With ELEKYNELERNRKIYQF [SMC3] as the sequence, how does the protein stability index read?
Answer: Its protein stability index is 2.38 ± 0.14.

Question: With ELEQLVEFNRKVVIPNL [RPN3] as the sequence, how does the protein stability index read?
Answer: The protein stability index was 3.26 ± 0.071.

Question: With ELISFKERTKSLEHELK [YIL149C/MLP2] as the sequence, how does the protein stability index read?
Answer: The protein stability index was 2.78 ± 0.073.

Question: With ELISYRNESLKNNSSIR [SRB8] as the sequence, how does the protein stability index read?
Answer: Its protein stability index is 3.05 ± 0.08.

Question: Which protein stability index does the source give for ELLSMGNAKESKALLRE [SRP72] here?
Answer: The protein stability index was 2.91 ± 0.19.

Question: For ELNDNPAWFNNPRKRAI [YMR153W/NUP53], which protein stability index is on record?
Answer: Its protein stability index is 2.48 ± 0.037.

Question: For ELNQDRLGGDDLRIRIK [SNF5], which protein stability index is on record?
Answer: The protein stability index was 3.21 ± 0.12.

Question: For ELNVDSMDVDDKNSGVK [ITC1], which protein stability index is on record?
Answer: The protein stability index was 1.68 ± 0.1.

Question: For ELQEKNVELLNCIRILA [YIL149C/MLP2], which protein stability index is on record?
Answer: The protein stability index was 1.73 ± 0.085.

Question: Which protein stability index does the source give for ELTDNMSDFVPIDAGLN [MCD1] here?
Answer: Its protein stability index is 2.74 ± 0.081.

Question: With ELTSFSSQPLEPLSDTE [DSN1] as the sequence, how does the protein stability index read?
Answer: Its protein stability index is 3.29 ± 0.065.

Question: With ELYSFQQLVDSEKRLDH [SNF12] as the sequence, how does the protein stability index read?
Answer: The protein stability index was 2.26 ± 0.11.

Question: With EMARTKKACIIFFDEID [RPT1] as the sequence, how does the protein stability index read?
Answer: Its protein stability index is 2.54 ± 0.083.

Question: With EMDSVSKSMKFSRRFDC [CSN9] as the sequence, how does the protein stability index read?
Answer: The protein stability index was 2.71 ± 0.054.

Question: With EMLEENFPEASKLSEHL [YCG1] as the sequence, how does the protein stability index read?
Answer: Its protein stability index is 2.82 ± 0.19.

Question: With EMNLHVPQSEETRAELS [RPO21] as the sequence, how does the protein stability index read?
Answer: Its protein stability index is 3.1 ± 0.1.

Question: Which protein stability index does the source give for ENDEEDIYMHDVNSASK [RRP4] here?
Answer: The protein stability index was 3.01 ± 0.095.

Question: With ENDEEFYKNKYSSKPYK [RPN2] as the sequence, how does the protein stability index read?
Answer: The protein stability index was 2.36 ± 0.12.

Question: With ENDQQDNEEWMNDVINT [LIN1] as the sequence, how does the protein stability index read?
Answer: Its protein stability index is 3.19 ± 0.058.

Question: With ENEDGNIEERKEKIQHE [BRR2] as the sequence, how does the protein stability index read?
Answer: Its protein stability index is 3.57 ± 0.092.

Question: For ENEVENINATNTSVLMK [YCS4], which protein stability index is on record?
Answer: Its protein stability index is 3.09 ± 0.091.

Question: Which protein stability index does the source give for ENGTHNDEVNEDEEDDN [YCG1] here?
Answer: Its protein stability index is 3.54 ± 0.11.

Question: Which protein stability index does the source give for ENNRLLFECRTCSYVEE [RPB9] here?
Answer: The protein stability index was 3.04 ± 0.17.

Question: For ENNTDSARKELEQKIHE [SMC1], which protein stability index is on record?
Answer: Its protein stability index is 2.79 ± 0.086.

Question: With ENRFQDTLLLLPTDGGL [POP4] as the sequence, how does the protein stability index read?
Answer: Its protein stability index is 1.77 ± 0.11.

Question: For ENVKIINYLLTLAITTV [RPN2], which protein stability index is on record?
Answer: The protein stability index was 2.56 ± 0.065.

Question: For EPLAFYLEESFTNLGII [RGR1], which protein stability index is on record?
Answer: Its protein stability index is 2.35 ± 0.071.

Question: Which protein stability index does the source give for EPLSDTEEPDLAIADVE [DSN1] here?
Answer: The protein stability index was 3.09 ± 0.043.

Question: With EPSYIFEYLATVMYQRR [PRE4] as the sequence, how does the protein stability index read?
Answer: The protein stability index was 2.26 ± 0.091.

Question: Which protein stability index does the source give for EQFKMVSMITDHNALPQ [POP1] here?
Answer: The protein stability index was 2.28 ± 0.27.

Question: Which protein stability index does the source give for EQILQWVTEVLGNDIPH [BRR2] here?
Answer: The protein stability index was 2.88 ± 0.047.

Question: For EQKLVDLLKFENISLAE [BRR2], which protein stability index is on record?
Answer: The protein stability index was 2.71 ± 0.049.

Question: For EQNHLDNNYNTAETNNK [YDL088C/ASM4], which protein stability index is on record?
Answer: Its protein stability index is 3.02 ± 0.043.

Question: For EQPCVDIISGKIHSILP [YJR042W/NUP85], which protein stability index is on record?
Answer: Its protein stability index is 3 ± 0.064.

Question: For EQQKGQQTAQTQLEQQR [SNF5], which protein stability index is on record?
Answer: The protein stability index was 3.22 ± 0.079.

Question: With EQRKQKLSKILPRYQEL [SMC3] as the sequence, how does the protein stability index read?
Answer: Its protein stability index is 3.01 ± 0.096.
